# From doi:10.1101/2023.03.02.530905 (bioRxiv, 2023)
# Molecular target: the molecule itself
# Assay: cross-linking
row,Protein,stoichiometry N
1,GM130 N122-oDi-his (other) MWPPRFPPPRPGMSEETRQSKLAAAKKKLREYQQKNSPGVPAGAKKKKKIKNGHSPERTSASDCQSAENVPTDHTAPAPPSTAAATMFLGVVPSPDADLIQSHDAGNCSNLMEETKTFSSTEGEIAALKQEIAALKKENAALKFEIAALKQG,2
2,GM130 N122-oTet-his (other) MWPPRFPPPRPGMSEETRQSKLAAAKKKLREYQQKNSPGVPAGAKKKKKIKNGHSPERTSASDCQSAENVPTDHTAPAPPSTAAATMFLGVVPSPDADLIQSHDAGNCSNLMEETKTFSSTEGELAAIKQELAAIKKELAAIKWELAAIKQG,4
